Literature values, collected in PMC5322387.

Legend:
E2 L2 L2 (Homo sapiens) [1] = molecular target: E2 L2 L2 (Homo sapiens) (UniProt P10515); test: gel filtration
E2 L2 L2 (Homo sapiens) [2] = molecular target: E2 L2 L2 (Homo sapiens) (UniProt P10515); test: ITC
[3] = molecular target: E3BP L3 L3 (Homo sapiens) (UniProt O00330); test: ITC
Sequence of E3BP L3 L3 (Homo sapiens) (O00330 56-132): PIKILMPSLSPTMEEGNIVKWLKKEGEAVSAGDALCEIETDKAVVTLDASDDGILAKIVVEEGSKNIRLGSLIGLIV

Sequence of E2 L2 L2 (Homo sapiens) (P10515 218-294): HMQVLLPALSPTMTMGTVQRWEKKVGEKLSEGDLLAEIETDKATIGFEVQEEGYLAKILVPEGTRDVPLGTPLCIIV
Sequence of PDK3 (Q15120 2-406): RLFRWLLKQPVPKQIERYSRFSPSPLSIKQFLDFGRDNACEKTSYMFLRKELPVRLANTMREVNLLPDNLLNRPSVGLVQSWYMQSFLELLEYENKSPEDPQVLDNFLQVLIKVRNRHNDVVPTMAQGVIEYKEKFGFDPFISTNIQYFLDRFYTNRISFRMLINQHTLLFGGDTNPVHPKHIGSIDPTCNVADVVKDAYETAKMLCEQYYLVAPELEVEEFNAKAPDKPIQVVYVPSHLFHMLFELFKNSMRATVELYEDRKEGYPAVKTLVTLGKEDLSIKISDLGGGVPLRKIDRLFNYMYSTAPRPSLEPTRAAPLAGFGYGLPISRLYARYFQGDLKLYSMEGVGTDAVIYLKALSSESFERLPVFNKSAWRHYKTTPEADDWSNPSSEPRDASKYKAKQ
Sequence of PDK1 (Q15118 29-436): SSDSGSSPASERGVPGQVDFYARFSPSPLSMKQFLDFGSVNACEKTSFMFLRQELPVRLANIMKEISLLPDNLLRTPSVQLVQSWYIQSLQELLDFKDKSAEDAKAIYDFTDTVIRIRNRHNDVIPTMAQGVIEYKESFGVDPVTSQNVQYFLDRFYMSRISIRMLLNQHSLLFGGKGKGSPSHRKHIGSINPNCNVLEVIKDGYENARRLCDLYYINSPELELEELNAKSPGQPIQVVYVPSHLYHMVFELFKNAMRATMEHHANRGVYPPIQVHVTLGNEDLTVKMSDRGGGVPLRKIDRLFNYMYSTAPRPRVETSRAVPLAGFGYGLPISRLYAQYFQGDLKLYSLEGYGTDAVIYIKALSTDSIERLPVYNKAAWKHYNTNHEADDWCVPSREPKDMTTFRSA
Sequence of PDK4 (Q16654 2-411): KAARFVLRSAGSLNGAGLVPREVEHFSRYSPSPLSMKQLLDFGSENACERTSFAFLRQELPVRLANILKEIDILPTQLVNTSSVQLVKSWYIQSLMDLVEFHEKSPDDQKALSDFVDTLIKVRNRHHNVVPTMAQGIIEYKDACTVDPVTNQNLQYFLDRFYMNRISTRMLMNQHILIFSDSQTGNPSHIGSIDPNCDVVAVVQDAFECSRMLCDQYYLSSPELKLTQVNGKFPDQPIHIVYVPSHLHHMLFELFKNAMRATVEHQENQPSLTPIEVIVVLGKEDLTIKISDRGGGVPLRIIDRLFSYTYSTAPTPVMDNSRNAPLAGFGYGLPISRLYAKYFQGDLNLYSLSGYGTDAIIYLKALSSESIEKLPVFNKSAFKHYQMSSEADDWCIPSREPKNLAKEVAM

Q: With PDK1 (from UniProt Q15118) as the substance, how does the Kd (E2 L2 L2 (Homo sapiens) [1]) read?
A: 10 µM

Q: With PDK3 (from UniProt Q15120) as the substance, how does the Kd (E2 L2 L2 (Homo sapiens) [2]) read?
A: 1.17 µM

Q: Which Kd [3] does the source give for PDK4 (from UniProt Q16654) here?
A: 5 µM
